Experimental data reported in the supplement of paper PMC9112550, “Optimization of the antimicrobial peptide Bac7 by deep mutational scanning” (BMC Biology, 2022).

test system: Escherichia coli TOP10; assay: shrunken log2 fold change of peptide-encoding DNA abundance (4.5 h post-induction vs induction); higher = less antimicrobial activity (less host growth inhibition); settings: time post-induction: 4.5 h; library: site-saturation at positions 5, 18, 19, 20
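Also: peptides expressed intracellularly from a pBAD plasmid library in pooled LB shake-flask culture, induced with 0.3% L-arabinose, DNA abundance read by NGS, three biological replicates, DESeq2 with apeglm shrinkage.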

Row | Sequence | shrunken log2 fold change
1 | RRIRERPPRLPRPRPRPAKGPRP | -0.321
2 | RRIRRRPPRLPRPRPRPTTNPRP | 0.338
3 | RRIRARPPRLPRPRPRPQQYPRP | -0.203
4 | RRIRDRPPRLPRPRPRPTIVPRP | 0.0194
5 | RRIRCRPPRLPRPRPRPVQKPRP | -0.0201
6 | RRIRFRPPRLPRPRPRPPRWPRP | 0.659
7 | RRIRNRPPRLPRPRPRPGQHPRP | 0.128
8 | RRIRFRPPRLPRPRPRPNCKPRP | -0.0929
9 | RRIRYRPPRLPRPRPRPKEAPRP | -0.0135
10 | RRIRTRPPRLPRPRPRPDYIPRP | -0.323
11 | RRIRKRPPRLPRPRPRPEMSPRP | 0.325
12 | RRIRFRPPRLPRPRPRPIQEPRP | -0.541
13 | RRIRPRPPRLPRPRPRPGPGPRP | 0.621
14 | RRIRFRPPRLPRPRPRPHWHPRP | -0.444
15 | RRIRSRPPRLPRPRPRPARMPRP | -0.0672
16 | RRIRLRPPRLPRPRPRPPQTPRP | 0.0847
17 | RRIRYRPPRLPRPRPRPIPKPRP | 0.141
18 | RRIRCRPPRLPRPRPRPEHRPRP | -0.0739
19 | RRIRDRPPRLPRPRPRPCGCPRP | 0.317
20 | RRIRARPPRLPRPRPRPCCWPRP | 0.245
21 | RRIRRRPPRLPRPRPRPVVTPRP | 0.911
22 | RRIRRRPPRLPRPRPRPIMHPRP | -0.094
23 | RRIRVRPPRLPRPRPRPRDIPRP | -0.0591
24 | RRIRARPPRLPRPRPRPPPIPRP | 1
25 | RRIRFRPPRLPRPRPRPYVCPRP | -0.301

Row | Sequence | shrunken log2 fold change
26 | RRIRYRPPRLPRPRPRPHWEPRP | -0.276
27 | RRIRLRPPRLPRPRPRPFPQPRP | -0.0558
28 | RRIRQRPPRLPRPRPRPEWYPRP | 0.0539
29 | RRIRYRPPRLPRPRPRPGQIPRP | -0.0348
30 | RRIRNRPPRLPRPRPRPSWLPRP | -0.361
31 | RRIRGRPPRLPRPRPRPRAGPRP | 1.36
32 | RRIRCRPPRLPRPRPRPARTPRP | 0.359
33 | RRIRRRPPRLPRPRPRPYVLPRP | 0.00941
34 | RRIRVRPPRLPRPRPRPINSPRP | -0.022
35 | RRIRGRPPRLPRPRPRPAAEPRP | 2.52
36 | RRIRIRPPRLPRPRPRPKACPRP | 0.0544
37 | RRIRTRPPRLPRPRPRPIADPRP | -0.0123
38 | RRIRNRPPRLPRPRPRPNGMPRP | -0.00904
39 | RRIRTRPPRLPRPRPRPPKIPRP | -0.112
40 | RRIRHRPPRLPRPRPRPPHVPRP | 0.16
41 | RRIRYRPPRLPRPRPRPGPNPRP | 0.205
42 | RRIRMRPPRLPRPRPRPDAAPRP | 3.98
43 | RRIRRRPPRLPRPRPRPNGGPRP | 0.171
44 | RRIRIRPPRLPRPRPRPVIPPRP | -0.358
45 | RRIRNRPPRLPRPRPRPTEWPRP | 0.0839
46 | RRIRMRPPRLPRPRPRPYELPRP | 0.0224
47 | RRIRDRPPRLPRPRPRPQDKPRP | -0.592
48 | RRIRTRPPRLPRPRPRPAKYPRP | -0.355
49 | RRIRHRPPRLPRPRPRPSMHPRP | -0.705
50 | RRIRFRPPRLPRPRPRPQLTPRP | -0.527

Row | Sequence | shrunken log2 fold change
51 | RRIRWRPPRLPRPRPRPLSCPRP | 0.154
52 | RRIRLRPPRLPRPRPRPWHCPRP | -0.0686
53 | RRIRPRPPRLPRPRPRPNRRPRP | -0.0942
54 | RRIRSRPPRLPRPRPRPAKPPRP | -0.146
55 | RRIRLRPPRLPRPRPRPARPPRP | 0.449
56 | RRIRDRPPRLPRPRPRPWTHPRP | -0.291
57 | RRIRKRPPRLPRPRPRPDIRPRP | 0.0731
58 | RRIRWRPPRLPRPRPRPWSMPRP | -0.269
59 | RRIRRRPPRLPRPRPRPAWMPRP | 0.24
60 | RRIRKRPPRLPRPRPRPGFPPRP | 0.419
61 | RRIRIRPPRLPRPRPRPYFPPRP | -0.909
62 | RRIRPRPPRLPRPRPRPGMEPRP | 0.367
63 | RRIRARPPRLPRPRPRPDHSPRP | 0.0675
64 | RRIRFRPPRLPRPRPRPIHTPRP | 0.0523
65 | RRIRVRPPRLPRPRPRPGRGPRP | 0.632
66 | RRIRTRPPRLPRPRPRPFYDPRP | -0.382
67 | RRIRYRPPRLPRPRPRPSWGPRP | -0.154
68 | RRIRHRPPRLPRPRPRPNFAPRP | 0.303
69 | RRIRIRPPRLPRPRPRPIRPPRP | -0.277
70 | RRIRHRPPRLPRPRPRPSDSPRP | -0.0454
71 | RRIRVRPPRLPRPRPRPDHPPRP | -0.386
72 | RRIRVRPPRLPRPRPRPWGEPRP | 0.136
73 | RRIRFRPPRLPRPRPRPVTCPRP | -0.491
74 | RRIRNRPPRLPRPRPRPDPLPRP | -0.0328
75 | RRIRGRPPRLPRPRPRPKNEPRP | 0.713

Row | Sequence | shrunken log2 fold change
76 | RRIRRRPPRLPRPRPRPARNPRP | 3.18
77 | RRIRNRPPRLPRPRPRPHMVPRP | -0.13
78 | RRIRERPPRLPRPRPRPFCCPRP | -0.0198
79 | RRIRCRPPRLPRPRPRPLARPRP | 0.0547
80 | RRIRVRPPRLPRPRPRPNFFPRP | 0.0488
81 | RRIRFRPPRLPRPRPRPDGTPRP | -0.256
82 | RRIRQRPPRLPRPRPRPDFAPRP | -0.0596
83 | RRIRHRPPRLPRPRPRPTMQPRP | -0.0838
84 | RRIRIRPPRLPRPRPRPRWGPRP | 0.181
85 | RRIRARPPRLPRPRPRPTETPRP | 1.11
86 | RRIRKRPPRLPRPRPRPHKRPRP | 0.434
87 | RRIRCRPPRLPRPRPRPNQTPRP | -0.185
88 | RRIRARPPRLPRPRPRPPAMPRP | 0.394
89 | RRIRWRPPRLPRPRPRPQDAPRP | -0.0395
90 | RRIRIRPPRLPRPRPRPWRMPRP | -0.473
91 | RRIRARPPRLPRPRPRPYCHPRP | -0.381
92 | RRIRQRPPRLPRPRPRPDHYPRP | -0.213
93 | RRIRVRPPRLPRPRPRPPRLPRP | 0.294
94 | RRIRYRPPRLPRPRPRPRTVPRP | -0.0278
95 | RRIRSRPPRLPRPRPRPSGKPRP | -0.202
96 | RRIRARPPRLPRPRPRPFGKPRP | 0.0252
97 | RRIRCRPPRLPRPRPRPFLGPRP | -0.305
98 | RRIRIRPPRLPRPRPRPSVQPRP | -0.51
99 | RRIRPRPPRLPRPRPRPWATPRP | -0.213
100 | RRIRVRPPRLPRPRPRPCMRPRP | 0.108

Row | Sequence | shrunken log2 fold change
101 | RRIRIRPPRLPRPRPRPVHHPRP | -0.732
102 | RRIRNRPPRLPRPRPRPCDWPRP | -0.0698
103 | RRIRMRPPRLPRPRPRPCTGPRP | -0.0444
104 | RRIRCRPPRLPRPRPRPDNQPRP | -0.696
105 | RRIRWRPPRLPRPRPRPPGPPRP | 0.599
106 | RRIRWRPPRLPRPRPRPCDVPRP | -0.00226
107 | RRIRKRPPRLPRPRPRPYSTPRP | -0.0551
108 | RRIRWRPPRLPRPRPRPEEMPRP | 0.013
109 | RRIRKRPPRLPRPRPRPWRTPRP | 0.379
110 | RRIRTRPPRLPRPRPRPLRWPRP | 0.856
111 | RRIRCRPPRLPRPRPRPMLPPRP | -0.00464
112 | RRIRHRPPRLPRPRPRPFGTPRP | -0.213
113 | RRIRPRPPRLPRPRPRPHCEPRP | 0.308
114 | RRIRDRPPRLPRPRPRPIYYPRP | -0.253
115 | RRIRNRPPRLPRPRPRPIIMPRP | -0.729
116 | RRIRRRPPRLPRPRPRPAKVPRP | 0.0346
117 | RRIRSRPPRLPRPRPRPLWVPRP | 0.0823
118 | RRIRYRPPRLPRPRPRPAFEPRP | -0.0224
119 | RRIRCRPPRLPRPRPRPHHSPRP | -0.201
120 | RRIRNRPPRLPRPRPRPTNTPRP | -0.34
121 | RRIRFRPPRLPRPRPRPGNLPRP | -0.13
122 | RRIRHRPPRLPRPRPRPCSSPRP | 0.032
123 | RRIRPRPPRLPRPRPRPMDVPRP | -0.0123
124 | RRIRSRPPRLPRPRPRPKGPPRP | -0.00375
125 | RRIRSRPPRLPRPRPRPKNWPRP | 0.176

Row | Sequence | shrunken log2 fold change
126 | RRIRWRPPRLPRPRPRPHQEPRP | 0.0101
127 | RRIRSRPPRLPRPRPRPSADPRP | 0.0633
128 | RRIRRRPPRLPRPRPRPEFEPRP | 0.37
129 | RRIRERPPRLPRPRPRPPRRPRP | 0.408
130 | RRIRVRPPRLPRPRPRPDWKPRP | -0.0682
131 | RRIRHRPPRLPRPRPRPDTDPRP | -0.0683
132 | RRIRRRPPRLPRPRPRPPFLPRP | 0.315
133 | RRIRCRPPRLPRPRPRPVLHPRP | -0.199
134 | RRIRDRPPRLPRPRPRPSVPPRP | -0.329
135 | RRIRMRPPRLPRPRPRPIIQPRP | -0.402
136 | RRIRHRPPRLPRPRPRPSDWPRP | -0.327
137 | RRIRTRPPRLPRPRPRPAQDPRP | 0.111
138 | RRIRARPPRLPRPRPRPEVWPRP | 1.43
139 | RRIRCRPPRLPRPRPRPWDFPRP | -0.0326
140 | RRIRWRPPRLPRPRPRPHKMPRP | -0.146
141 | RRIRLRPPRLPRPRPRPQSWPRP | -0.0792
142 | RRIRQRPPRLPRPRPRPICSPRP | -0.0668
143 | RRIRSRPPRLPRPRPRPIPIPRP | 0.159
144 | RRIRERPPRLPRPRPRPPSAPRP | 0.632
145 | RRIRTRPPRLPRPRPRPAQGPRP | 0.228
146 | RRIRVRPPRLPRPRPRPEVKPRP | 0.0366
147 | RRIRNRPPRLPRPRPRPGIKPRP | -0.192
148 | RRIRIRPPRLPRPRPRPIICPRP | -0.775
149 | RRIRQRPPRLPRPRPRPMNEPRP | -0.0541
150 | RRIRTRPPRLPRPRPRPAKVPRP | -0.29
